Patent publication US20260049138A1 (Chugai, published 2026)
Residue numbers refer to the chain shown, from its start. Numbers in names are those of the source. Values belong to the binder of their own block, whether it stands above or below them.

Molecular target: T1, CD3ε homodimer protein (human, UniProt P07766 23-126, limits assumed)
T1 construct: also called CD3 (CD3ε)
Test: SPR Biacore T200, CD3ε homodimer on chip;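 also: Light-chain single-residue variant antibodies injected over amine-coupled CD3ε homodimer on a CM4 chip at 25 °C, bound amount divided by that of the GLS3000-containing antibody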

T1 sequence (P07766 23-126 limits assumed): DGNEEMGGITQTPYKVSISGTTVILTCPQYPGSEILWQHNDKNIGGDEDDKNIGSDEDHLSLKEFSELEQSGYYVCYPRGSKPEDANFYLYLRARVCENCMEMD

ratio of amount bound vs unaltered GLS3000: 0.88
B1: GLS3000 R24T one-arm antibody (antibody, human IgG1, kappa, L234A L235A, N297A, name in Kabat numbering)
heavy: QVQLVESGGGVVQPGRSLRLSCAASGFTFSNAWMHWVRQAPGKGLEWVAQIKAKSNNYATYYAESVKGRFTISRDDSKNSLYLQMNSLKTEDTAVYYCRYVHYGAYYGVDAWGQGTTVTVSSASTKGPSVFPLAPSSKSTSGGTAALGCLVKDYFPEPVTVSWNSGALTSGVHTFPAVLQSSGLYSLSSVVTVPSSSLGTQTYICNVNHKPSNTKVDKKVEPKSCDKTHTCPPCPAPEAAGGPSVFLFPPKPKDTLMISRTPEVTCVVVDVSHEDPEVKFNWYVDGVEVHNAKTKPREEQYASTYRVVSVLTVLHQDWLNGKEYKCKVSNKALPAPIEKTISKAKGQPREPQVYTLPPSRCELTKNQVSLSCAVKGFYPSDIAVEWESNGQPENNYKTTPPVLDSDGSFFLVSKLTVDKSRWQQGNVFSCSVMHEALHNHYTQKSLSLSPDYKDDDDK
chain: EPKSSDKTHTCPPCPAPELLGGPSVFLFPPKPKDTLMISRTPEVTCVVVDVSHEDPEVKFNWYVDGVEVHNAKTKPREEQYNSTYRVVSVLTVLHQDWLNGKEYKCKVSNKALPAPIEKTISKAKGQPREPQVCTLPPSRDELTKNQVSLWCLVKGFYPSDIAVEWESNGQPENNYKTTPPVLDSDGSFFLYSKLTVDKSRWQQGNVFSCSVMHEALHNRYTQKSLSLSP
light: DIVMTQSPLSLPVTPGEPASISCTSSQSLVHSNRNTYLHWYQQKPGQAPRLLIYKVSNRFSGVPDRFSGSGSGTDFTLKISRVEAEDVGVYYCGQGTQVPYTFGQGTKLEIKRTVAAPSVFIFPPSDEQLKSGTASVVCLLNNFYPREAKVQWKVDNALQSGNSQESVTEQDSKDSTYSLSSTLTLSKADYEKHKVYACEVTHQGLSSPVTKSFNRGEC

ratio of amount bound vs unaltered GLS3000: 0.63
B2: GLS3000 R29A one-arm antibody (antibody, human IgG1, kappa, L234A L235A, N297A, name in Kabat numbering)
heavy: B1 heavy
chain: B1 chain
light: B1 light with T24R, R34A

ratio of amount bound vs unaltered GLS3000: 0.73
B3: GLS3000 S25V one-arm antibody (antibody, human IgG1, kappa, L234A L235A, N297A, name in Kabat numbering)
heavy: B1 heavy
chain: B1 chain
light: B1 light with T24R, S25V

ratio of amount bound vs unaltered GLS3000: 0.92
B4: GLS3000 R77S one-arm antibody (antibody, human IgG1, kappa, L234A L235A, N297A, name in Kabat numbering)
heavy: B1 heavy
chain: B1 chain
light: B1 light with T24R, R82S

ratio of amount bound vs unaltered GLS3000: 0.74
B5: GLS3000 S26E one-arm antibody (antibody, human IgG1, kappa, L234A L235A, N297A, name in Kabat numbering)
heavy: B1 heavy
chain: B1 chain
light: B1 light with T24R, S26E

ratio of amount bound vs unaltered GLS3000: 0.63
B6: GLS3000 R29T one-arm antibody (antibody, human IgG1, kappa, L234A L235A, N297A, name in Kabat numbering)
heavy: B1 heavy
chain: B1 chain
light: B1 light with T24R, R34T

ratio of amount bound vs unaltered GLS3000: 0.84
B7: GLS3000 R54P one-arm antibody (antibody, human IgG1, kappa, L234A L235A, N297A, name in Kabat numbering)
heavy: B1 heavy
chain: B1 chain
light: B1 light with T24R, R59P

ratio of amount bound vs unaltered GLS3000: 0.41
B8: GLS3000 R29D one-arm antibody (antibody, human IgG1, kappa, L234A L235A, N297A, name in Kabat numbering)
heavy: B1 heavy
chain: B1 chain
light: B1 light with T24R, R34D

ratio of amount bound vs unaltered GLS3000: 0.68
B9: GLS3000 R54Q one-arm antibody (antibody, human IgG1, kappa, L234A L235A, N297A, name in Kabat numbering)
heavy: B1 heavy
chain: B1 chain
light: B1 light with T24R, R59Q

ratio of amount bound vs unaltered GLS3000: 0.56
B10: GLS3000 R29L one-arm antibody (antibody, human IgG1, kappa, L234A L235A, N297A, name in Kabat numbering)
heavy: B1 heavy
chain: B1 chain
light: B1 light with T24R, R34L

ratio of amount bound vs unaltered GLS3000: 0.68
B11: GLS3000 R29S one-arm antibody (antibody, human IgG1, kappa, L234A L235A, N297A, name in Kabat numbering)
heavy: B1 heavy
chain: B1 chain
light: B1 light with T24R, R34S

ratio of amount bound vs unaltered GLS3000: 0.34
B12: GLS3000 R29V one-arm antibody (antibody, human IgG1, kappa, L234A L235A, N297A, name in Kabat numbering)
heavy: B1 heavy
chain: B1 chain
light: B1 light with T24R, R34V

ratio of amount bound vs unaltered GLS3000: 0.79
B13: GLS3000 R54S one-arm antibody (antibody, human IgG1, kappa, L234A L235A, N297A, name in Kabat numbering)
heavy: B1 heavy
chain: B1 chain
light: B1 light with T24R, R59S

ratio of amount bound vs unaltered GLS3000: 0.78
B14: GLS3000 R54W one-arm antibody (antibody, human IgG1, kappa, L234A L235A, N297A, name in Kabat numbering)
heavy: B1 heavy
chain: B1 chain
light: B1 light with T24R, R59W

ratio of amount bound vs unaltered GLS3000: 0.69
B15: GLS3000 R54A one-arm antibody (antibody, human IgG1, kappa, L234A L235A, N297A, name in Kabat numbering)
heavy: B1 heavy
chain: B1 chain
light: B1 light with T24R, R59A

ratio of amount bound vs unaltered GLS3000: 0.21
B16: GLS3000 S25E one-arm antibody (antibody, human IgG1, kappa, L234A L235A, N297A, name in Kabat numbering)
heavy: B1 heavy
chain: B1 chain
light: B1 light with T24R, S25E

ratio of amount bound vs unaltered GLS3000: 0.37
B17: GLS3000 R29I one-arm antibody (antibody, human IgG1, kappa, L234A L235A, N297A, name in Kabat numbering)
heavy: B1 heavy
chain: B1 chain
light: B1 light with T24R, R34I

ratio of amount bound vs unaltered GLS3000: 0.78
B18: GLS3000 S26P one-arm antibody (antibody, human IgG1, kappa, L234A L235A, N297A, name in Kabat numbering)
heavy: B1 heavy
chain: B1 chain
light: B1 light with T24R, S26P

ratio of amount bound vs unaltered GLS3000: 0.86
B19: GLS3000 S26D one-arm antibody (antibody, human IgG1, kappa, L234A L235A, N297A, name in Kabat numbering)
heavy: B1 heavy
chain: B1 chain
light: B1 light with T24R, S26D

ratio of amount bound vs unaltered GLS3000: 0.83
B20: GLS3000 S25T one-arm antibody (antibody, human IgG1, kappa, L234A L235A, N297A, name in Kabat numbering)
heavy: B1 heavy
chain: B1 chain
light: B1 light with T24R, S25T

ratio of amount bound vs unaltered GLS3000: 0.65
B21: GLS3000 R54T one-arm antibody (antibody, human IgG1, kappa, L234A L235A, N297A, name in Kabat numbering)
heavy: B1 heavy
chain: B1 chain
light: B1 light with T24R, R59T

ratio of amount bound vs unaltered GLS3000: 0.36
B22: GLS3000 R54D one-arm antibody (antibody, human IgG1, kappa, L234A L235A, N297A, name in Kabat numbering)
heavy: B1 heavy
chain: B1 chain
light: B1 light with T24R, R59D

ratio of amount bound vs unaltered GLS3000: 0.31
B23: GLS3000 S25M one-arm antibody (antibody, human IgG1, kappa, L234A L235A, N297A, name in Kabat numbering)
heavy: B1 heavy
chain: B1 chain
light: B1 light with T24R, S25M

ratio of amount bound vs unaltered GLS3000: 0.67
B24: GLS3000 R29G one-arm antibody (antibody, human IgG1, kappa, L234A L235A, N297A, name in Kabat numbering)
heavy: B1 heavy
chain: B1 chain
light: B1 light with T24R, R34G

ratio of amount bound vs unaltered GLS3000: 0.87
B25: GLS3000 R24Y one-arm antibody (antibody, human IgG1, kappa, L234A L235A, N297A, name in Kabat numbering)
heavy: B1 heavy
chain: B1 chain
light: B1 light with T24Y

ratio of amount bound vs unaltered GLS3000: 0.31
B26: GLS3000 R29P one-arm antibody (antibody, human IgG1, kappa, L234A L235A, N297A, name in Kabat numbering)
heavy: B1 heavy
chain: B1 chain
light: B1 light with T24R, R34P

ratio of amount bound vs unaltered GLS3000: 0.18
B27: GLS3000 S25D one-arm antibody (antibody, human IgG1, kappa, L234A L235A, N297A, name in Kabat numbering)
heavy: B1 heavy
chain: B1 chain
light: B1 light with T24R, S25D

ratio of amount bound vs unaltered GLS3000: 0.69
B28: GLS3000 R29Y one-arm antibody (antibody, human IgG1, kappa, L234A L235A, N297A, name in Kabat numbering)
heavy: B1 heavy
chain: B1 chain
light: B1 light with T24R, R34Y

ratio of amount bound vs unaltered GLS3000: 0.24
B29: GLS3000 S25L one-arm antibody (antibody, human IgG1, kappa, L234A L235A, N297A, name in Kabat numbering)
heavy: B1 heavy
chain: B1 chain
light: B1 light with T24R, S25L

ratio of amount bound vs unaltered GLS3000: 0.92
B30: GLS3000 S25A one-arm antibody (antibody, human IgG1, kappa, L234A L235A, N297A, name in Kabat numbering)
heavy: B1 heavy
chain: B1 chain
light: B1 light with T24R, S25A

ratio of amount bound vs unaltered GLS3000: 0.53
B31: GLS3000 S25I one-arm antibody (antibody, human IgG1, kappa, L234A L235A, N297A, name in Kabat numbering)
heavy: B1 heavy
chain: B1 chain
light: B1 light with T24R, S25I

ratio of amount bound vs unaltered GLS3000: 0.67
B32: GLS3000 R54G one-arm antibody (antibody, human IgG1, kappa, L234A L235A, N297A, name in Kabat numbering)
heavy: B1 heavy
chain: B1 chain
light: B1 light with T24R, R59G

ratio of amount bound vs unaltered GLS3000: 0.58
B33: GLS3000 R54E one-arm antibody (antibody, human IgG1, kappa, L234A L235A, N297A, name in Kabat numbering)
heavy: B1 heavy
chain: B1 chain
light: B1 light with T24R, R59E

ratio of amount bound vs unaltered GLS3000: 1.01
B34: GLS3000 S25P one-arm antibody (antibody, human IgG1, kappa, L234A L235A, N297A, name in Kabat numbering)
heavy: B1 heavy
chain: B1 chain
light: B1 light with T24R, S25P
